Data as given in paper PMC9691366, “Modulating the pharmacokinetic profile of Actinium-225-labeled macropa-derived radioconjugates by dual targeting of PSMA and albumin” (Theranostics, 2022).

Experiments:
[1] = Ex vivo biodistribution in LNCaP tumor-bearing SCID mice; conditions: mouse, in vivo, 50 kBq per mouse; for tissue uptake at 1 h: 1 h p.i.; for tissue uptake at 4 h: 4 h p.i.; for tissue uptake at 24 h: 24 h p.i.; for tissue uptake at 48 h: 48 h p.i.; for tissue uptake at 72 h: 72 h p.i.; for tissue uptake at 120 h: 120 h p.i.; for tissue uptake at 168 h: 168 h p.i.
Description: (§1) The biodistribution experiments with [^225Ac]Ac-mcp-M-alb-PSMA and [^225Ac]Ac-mcp-D-alb-PSMA were accomplished using LNCaP tumor-bearing mice. The SCID male mice (ENVIGO, Indianapolis, IN, USA) 8 weeks old were subcutaneously xenografted into the right flank with 10∙10^6 LNCaP cells (ATCC, Manassas, VA, USA) mixed with Matrigel Matrix (Corning Inc., Corning, NY, USA) at a 1:1 ratio. The tumor growth was periodically monitored by caliper-based measurements. When the tumor volume reached 200-300 mm^3 (i.e., approx. 6 weeks after the xenografting of the cells), the mice were enrolled in the biodistribution study. All experimental animals were housed in a specific-pathogen-free animal facility and all experiments with animals were performed in accordance with appropriate legal norms (Czech Law No. 246/1992) and with the approval of the Ministry of Education, Youth and Sports (MSMT-35035/2019-3) and approval of the Ethical committee of Faculty of Medicine and Dentistry, Palacky University in Olomouc. The number of animals was reduced as much as possible (n = 3-4 per group and time point) for in vivo experiments in order to strictly follow 3Rs principle.
(§2) For the purpose of biodistribution studies, the ^225Ac-radioconjugates were diluted with saline. The diluted ^225Ac-radioconjugates were applied retro-orbitally (r.o.) to the experimental animals at a dose of 50 kBq per mouse corresponding to 10 pmol of the PSMA-inhibitor. The radioactivity application was carried out under 2% isoflurane anesthesia (FORANE, Abbott Laboratories, Abbott Park, IL, USA) to minimize animal suffering and to prevent animal motion. The mice were sacrificed by cervical dislocation 1, 4, 24, 48, 72, and 120 h (plus 168 h for [^225Ac]Ac-mcp-D-alb-PSMA) post-injection and organs of interest (blood, spleen, pancreas, stomach, intestine, kidneys, liver, heart, lungs, muscle, bone, and tumor) were collected. The organs were weighed, and their radioactivity was counted on an automatic gamma counter. The uptake of the ^225Ac-radioconjugates was expressed as a percentage of injected dose per gram of the corresponding organ (%ID/g). The area under the curve (AUC) was determined for both tested PSMA ligands from non-decay-corrected data obtained from the ex vivo biodistribution data of the tumors, kidneys, and blood.

[2] = system: LNCaP tumor-bearing SCID mice; assay: as above
Description: as §1, §2

[3] = non-decay corrected biodistribution data, mean ± SD

O=C(O)CC[C@H](NC(=O)N[C@@H](CCCCNC(=O)[C@H](Cc1ccc2ccccc2c1)NC(=O)[C@H]1CC[C@H](CNC(=O)[C@H](CCCCn2cc(COc3cc(CN4CCOCCOCCN(Cc5cc(OCc6cn(CCCC[C@H](NC(=O)[C@H](CCC(=O)O)NC(=O)CCCc7ccc(I)cc7)C(=O)NC[C@H]7CC[C@H](C(=O)N[C@@H](Cc8ccc9ccccc9c8)C(=O)NCCCC[C@H](NC(=O)N[C@@H](CCC(=O)O)C(=O)O)C(=O)O)CC7)nn6)cc(C(=O)O)n5)CCOCCOCC4)nc(C(=O)O)c3)nn2)NC(=O)[C@H](CCC(=O)O)NC(=O)CCCc2ccc(I)cc2)CC1)C(=O)O)C(=O)O [[^225Ac]Ac-mcp-D-alb-PSMA, metal not drawn]
tissue to tissue ratio ([1]; male, SCID, total radioactivity): 1420
tissue uptake at 1 h ([1]; blood uptake (AV)): 8.44 %ID/g
tissue uptake at 4 h ([1]; blood uptake (AV)): 6.5 %ID/g
tissue uptake at 24 h ([1]; blood uptake (AV)): 2.85 %ID/g
tissue uptake at 48 h ([1]; blood uptake (AV)): 1.22 %ID/g
tissue uptake at 72 h ([1]; blood uptake (AV)): 0.7 %ID/g
tissue uptake at 120 h ([1]; blood uptake (AV)): 0.2 %ID/g
tissue uptake at 168 h ([1]; blood uptake (AV)): 0.11 %ID/g
tissue uptake at 1 h ([1]; femur uptake (AV)): 0.84 %ID/g
tissue uptake at 4 h ([1]; femur uptake (AV)): 0.89 %ID/g
tissue uptake at 24 h ([1]; femur uptake (AV)): 0.74 %ID/g
tissue uptake at 48 h ([1]; femur uptake (AV)): 0.96 %ID/g
tissue uptake at 72 h ([1]; femur uptake (AV)): 0.87 %ID/g
tissue uptake at 120 h ([1]; femur uptake (AV)): 1.22 %ID/g
tissue uptake at 168 h ([1]; femur uptake (AV)): 1.3 %ID/g
tissue uptake at 1 h ([1]; heart uptake (AV)): 2.47 %ID/g
tissue uptake at 4 h ([1]; heart uptake (AV)): 2.32 %ID/g
tissue uptake at 24 h ([1]; heart uptake (AV)): 1.21 %ID/g
tissue uptake at 48 h ([1]; heart uptake (AV)): 0.94 %ID/g
tissue uptake at 72 h ([1]; heart uptake (AV)): 0.82 %ID/g
tissue uptake at 120 h ([1]; heart uptake (AV)): 0.88 %ID/g
tissue uptake at 168 h ([1]; heart uptake (AV)): 0.83 %ID/g
tissue uptake at 1 h ([1]; intestine uptake (AV)): 0.8 %ID/g
tissue uptake at 4 h ([1]; intestine uptake (AV)): 0.64 %ID/g
tissue uptake at 24 h ([1]; intestine uptake (AV)): 0.58 %ID/g
tissue uptake at 48 h ([1]; intestine uptake (AV)): 0.37 %ID/g
tissue uptake at 72 h ([1]; intestine uptake (AV)): 0.26 %ID/g
tissue uptake at 120 h ([1]; intestine uptake (AV)): 0.19 %ID/g
tissue uptake at 168 h ([1]; intestine uptake (AV)): 0.17 %ID/g
tissue uptake at 1 h ([1]; kidneys uptake (AV)): 9.23 %ID/g
tissue uptake at 4 h ([1]; kidneys uptake (AV)): 21.8 %ID/g
tissue uptake at 24 h ([1]; kidneys uptake (AV)): 43.7 %ID/g
tissue uptake at 48 h ([1]; kidneys uptake (AV)): 59.9 ± 6.46 %ID/g
tissue uptake at 72 h ([1]; kidneys uptake (AV)): 50.1 %ID/g
tissue uptake at 120 h ([1]; kidneys uptake (AV)): 37.6 %ID/g
tissue uptake at 168 h ([1]; kidneys uptake (AV)): 33.7 ± 9.57 %ID/g
tissue uptake at 1 h ([1]; liver uptake (AV)): 2.42 %ID/g
tissue uptake at 4 h ([1]; liver uptake (AV)): 2.45 %ID/g
tissue uptake at 24 h ([1]; liver uptake (AV)): 2.52 %ID/g
tissue uptake at 48 h ([1]; liver uptake (AV)): 3.73 %ID/g
tissue uptake at 72 h ([1]; liver uptake (AV)): 3.39 %ID/g
tissue uptake at 120 h ([1]; liver uptake (AV)): 3.9 %ID/g
tissue uptake at 168 h ([1]; liver uptake (AV)): 4.31 %ID/g
tissue uptake at 1 h ([1]; lung uptake (AV)): 5.67 %ID/g
tissue uptake at 4 h ([1]; lung uptake (AV)): 4.57 %ID/g
tissue uptake at 24 h ([1]; lung uptake (AV)): 2.3 %ID/g
tissue uptake at 48 h ([1]; lung uptake (AV)): 2.75 %ID/g
tissue uptake at 72 h ([1]; lung uptake (AV)): 2.98 %ID/g
tissue uptake at 120 h ([1]; lung uptake (AV)): 7.5 %ID/g
tissue uptake at 168 h ([1]; lung uptake (AV)): 4.95 %ID/g
tissue uptake ([1]; maximal uptake in spleen): 11.4 ± 2.89 %ID/g
tissue uptake at 1 h ([1]; muscle uptake (AV)): 0.49 %ID/g
tissue uptake at 4 h ([1]; muscle uptake (AV)): 0.58 %ID/g
tissue uptake at 24 h ([1]; muscle uptake (AV)): 0.28 %ID/g
tissue uptake at 48 h ([1]; muscle uptake (AV)): 0.29 %ID/g
tissue uptake at 72 h ([1]; muscle uptake (AV)): 0.2 %ID/g
tissue uptake at 120 h ([1]; muscle uptake (AV)): 0.24 %ID/g
tissue uptake at 168 h ([1]; muscle uptake (AV)): 0.22 %ID/g
tissue uptake at 1 h ([1]; pancreas uptake (AV)): 0.68 %ID/g
tissue uptake at 4 h ([1]; pancreas uptake (AV)): 0.58 %ID/g
tissue uptake at 24 h ([1]; pancreas uptake (AV)): 0.5 %ID/g
tissue uptake at 48 h ([1]; pancreas uptake (AV)): 0.35 %ID/g
tissue uptake at 72 h ([1]; pancreas uptake (AV)): 0.39 %ID/g
tissue uptake at 120 h ([1]; pancreas uptake (AV)): 0.42 %ID/g
tissue uptake at 168 h ([1]; pancreas uptake (AV)): 0.37 %ID/g
tissue uptake at 1 h ([1]; spleen uptake (AV)): 7.11 %ID/g
tissue uptake at 4 h ([1]; spleen uptake (AV)): 6.21 %ID/g
tissue uptake at 24 h ([1]; spleen uptake (AV)): 5.24 %ID/g
tissue uptake at 48 h ([1]; spleen uptake (AV)): 8.33 %ID/g
tissue uptake at 72 h ([1]; spleen uptake (AV)): 10.2 %ID/g
tissue uptake at 120 h ([1]; spleen uptake (AV)): 10 %ID/g
tissue uptake at 168 h ([1]; spleen uptake (AV)): 11.4 %ID/g
tissue uptake at 1 h ([1]; stomach uptake (AV)): 0.98 %ID/g
tissue uptake at 4 h ([1]; stomach uptake (AV)): 0.59 %ID/g
tissue uptake at 24 h ([1]; stomach uptake (AV)): 0.61 %ID/g
tissue uptake at 48 h ([1]; stomach uptake (AV)): 0.4 %ID/g
tissue uptake at 72 h ([1]; stomach uptake (AV)): 0.27 %ID/g
tissue uptake at 120 h ([1]; stomach uptake (AV)): 0.34 %ID/g
tissue uptake at 168 h ([1]; stomach uptake (AV)): 0.27 %ID/g
tissue uptake at 1 h ([1]; tumor uptake (AV)): 3.35 %ID/g
tissue uptake at 4 h ([1]; tumor uptake (AV)): 10.6 %ID/g
tissue uptake at 24 h ([1]; tumor uptake (AV)): 27.6 %ID/g
tissue uptake at 48 h ([1]; tumor uptake (AV)): 57.4 %ID/g
tissue uptake at 72 h ([1]; tumor uptake (AV)): 86.4 %ID/g
tissue uptake at 120 h ([1]; tumor uptake (AV)): 120 %ID/g
tissue uptake at 168 h ([1]; tumor uptake (AV)): 127 %ID/g
tumor uptake (AV) ([2]; 168 h p.i.): 153.48 ± 37.76 %ID/g
AUC for tumor accumulation compared to monovalent counterpart ([2]; mouse, in vivo): almost double
AUCTu-to-AUCBl ([2]; mouse, in vivo): 26
AUCTu-to-AUCKi ([2]; mouse, in vivo): 1.4
AUCTu-to-AUCLi ([2]; mouse, in vivo): 20
AUCTu-to-AUCLi ratio compared with monovalent version of the ligand ([2]; mouse, in vivo): 0.7 fold
blood clearance: duration of excretion ([2]; mouse, in vivo): 72 h
maximal tumor uptake compared to counterpart without dedicated albumin binder ([2]; mouse, in vivo): twelve times higher
AUC Blood [2, 3]: 249 ± 10.4 %ID/g.h
AUC Kidneys [2, 3]: 4519 ± 193 %ID/g.h
AUC Liver [2, 3]: 328 ± 15.8 %ID/g.h
AUC Tumor [2, 3]: 6455 ± 411 %ID/g.h
